The values that follow come from paper PMC4010280.

Substrate in series [1]: C[C@H](O)[C@@H](O)[C@@H](O)[C@H](O)C(=O)O
Put plainly: coupled enzyme dehydration assay. The class given is biochemical, Homo sapiens.

Substrate in series [2]: O=C(O)[C@H](O)C(O)[C@@H](O)C(=O)O
Put plainly: purified protein.

Substrate in series [3]: O=C(O)[C@@H](O)[C@H](O)[C@H](O)CO
Put plainly: purified protein.

Substrate in series [4]: O=C(O)[C@H](O)[C@H](O)[C@H](O)CO
Description: purified protein.

Substrate in series [5]: O=C(O)[C@@H](O)[C@H](O)[C@H](O)[C@@H](O)CO
Put plainly: purified protein.

The term kcat denotes the number of substrate molecules converted per active site and unit of time at saturation. Broadly, the kcat/Km is the second-order rate constant that governs catalysis at low substrate concentration.

B1: rTSγ (HsrTSγ) (Homo sapiens) (protein)
chain: MVRGRISRLSVRDVRFPTSLGGHGADAMHTDPDYSAAYVVIETDAEDGIKGCGITFTLGKGTEVVVCAVNALAHHVLNKDLKDIVGDFRGFYRQLTSDGQLRWIGPEKGVVHLATAAVLNAVWDLWAKQEGKPVWKLLVDMDPRMLVSCIDFRYITDVLTEEDALEILQKGQIGKKEREKQMLAQGYPAYTTSCAWLGYSDDTLKQLCAQALKDGWTRFKVKVGADLQDDMRRCQIIRDMIGPEKTLMMDANQRWDVPEAVEWMSKLAKFKPLWIEEPTSPDDILGHATISKALVPLGIGIATGEQCHNRVIFKQLLQAKALQFLQIDSCRLGSVNENLSVLLMAKKFEIPVCPHAGGVGLCELVQHLIIFDYISVSASLENRVCEYVDHLHEHFKYPVMIQRASYMPPKDPGYSTEMKEESVKKHQYPDGEVWKKLLPA
On to B1, for which the turnover number (kcat) in series [1] is 0.5 ± 0.006 s⁻¹; in “purified protein [2]”, 0.3 ± 0.004 s⁻¹; in “purified protein [3]”, 0.04 ± 0.002 s⁻¹; in “purified protein [4]”, 0.002 ± 0.001 s⁻¹; in the series “purified protein [5]” it was 0.3 ± 0.01 s⁻¹. Further, the kcat/Km turned out to be 2500 M⁻¹ s⁻¹ in series [1]; 75 M⁻¹ s⁻¹ in the series “purified protein [2]”; 20 M⁻¹ s⁻¹ in “purified protein [3]”; 5 M⁻¹ s⁻¹ in the series “purified protein [4]”; 100 M⁻¹ s⁻¹ in “purified protein [5]”.
